Measurements published in the supplement of paper PMC10126150.
± gives the standard deviation of the averaged measurements.

Test system: ATP
Assay: switch fluorescence ratio, 500 uM ATP over buffer (Cy3 cluster intensity, sum of 5 cycles each) (fold (ratio)); higher = stronger signal-on switching upon ATP binding; sequences stand for … in TCGTCGGCAGCGTCAGATGTGTATAAGAGACAGTTTTTTTTTTTTTTTTTTTTTTTTT…TC
Settings: aptamer strand: ATP DNA aptamer (quencher-CACCTGGGGGAGTATTGCGGAGGAAGG + anchor), 100 nM annealed; ATP concentration: 500 uM
In short: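 After annealing to 100 nM quencher-labelled ATP aptamer, Cy3-labelled switching-strand clusters on a modified Illumina MiSeq flow-cell were imaged in selection buffer. A second image followed after 15 min with 500 uM ATP at 22 °C, and five such buffer/ATP cycles were done, each separated by NaOH stripping and re-annealing. The fluorescence ratio, averaged per switch-domain sequence, is summed target-cycle over summed buffer-cycle Cy3 intensity per cluster, with clusters outside 100-1000 RFU excluded.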
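Note: ATP exposure 15 min at 22 °C before imaging.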

TGTTGCGTGG
switch fluorescence ratio: 0.992 ± 0.012

TGTTGGGAGG
switch fluorescence ratio: 0.969 ± 0.017

TGTTGGGGAC
switch fluorescence ratio: 1.023 ± 0.0065

TGTTGGGTTT
switch fluorescence ratio: 0.998 ± 0.031

TGTTGGTAAT
switch fluorescence ratio: 0.996 ± 0.012

TGTTGGTATA
switch fluorescence ratio: 1.01 ± 0.012

TGTTGGTGGG
switch fluorescence ratio: 0.989 ± 0.024

TGTTGTGATT
switch fluorescence ratio: 0.994 ± 0.023

TGTTGTGCAC
switch fluorescence ratio: 1.02 ± 0.023

TGTTGTTTCG
switch fluorescence ratio: 0.989 ± 0.025

TGTTGTTTGT
switch fluorescence ratio: 1.02 ± 0.026

TGTTTAAAGG
switch fluorescence ratio: 1.02 ± 0.051

TGTTTAACAT
switch fluorescence ratio: 0.981 ± 0.035

TGTTTACTTT
switch fluorescence ratio: 0.98 ± 0.014

TGTTTAGCTT
switch fluorescence ratio: 1.024 ± 0.0066

TGTTTATTAG
switch fluorescence ratio: 0.986 ± 0.01

TGTTTATTCC
switch fluorescence ratio: 1.11 ± 0.087

TGTTTCAACT
switch fluorescence ratio: 0.9843 ± 0.0045

TGTTTCCATG
switch fluorescence ratio: 0.988 ± 0.016

TGTTTCCGTG
switch fluorescence ratio: 0.9766 ± 0.0027

TGTTTCTCTG
switch fluorescence ratio: 1.01 ± 0.023

TGTTTGAAAA
switch fluorescence ratio: 0.953 ± 0.027

TGTTTGAAGA
switch fluorescence ratio: 1 ± 0.028

TGTTTGCCAG
switch fluorescence ratio: 1 ± 0.05

TGTTTGGATG
switch fluorescence ratio: 0.973 ± 0.029

TGTTTGGATT
switch fluorescence ratio: 0.988 ± 0.013

TGTTTGGCGG
switch fluorescence ratio: 0.966 ± 0.02

TGTTTGGCTT
switch fluorescence ratio: 0.9619 ± 0.0079

TGTTTGGTAA
switch fluorescence ratio: 0.981 ± 0.024

TGTTTGTAAA
switch fluorescence ratio: 1.01 ± 0.029

TGTTTGTAGG
switch fluorescence ratio: 0.97 ± 0.043

TGTTTGTCA
switch fluorescence ratio: 0.989 ± 0.022

TGTTTGTGAG
switch fluorescence ratio: 1 ± 0.045

TGTTTGTGCG
switch fluorescence ratio: 0.9633 ± 0.0057

TGTTTGTTT
switch fluorescence ratio: 1.03 ± 0.025

TGTTTTAAAA
switch fluorescence ratio: 0.99 ± 0.027

TGTTTTAGCT
switch fluorescence ratio: 0.973 ± 0.021

TGTTTTAGG
switch fluorescence ratio: 0.998 ± 0.048

TGTTTTATCA
switch fluorescence ratio: 0.9742 ± 0.0037

TGTTTTCGCA
switch fluorescence ratio: 1 ± 0.021

TGTTTTGAGA
switch fluorescence ratio: 1 ± 0.023

TGTTTTGATC
switch fluorescence ratio: 0.977 ± 0.029

TGTTTTGGCG
switch fluorescence ratio: 0.959 ± 0.018

TGTTTTGGTT
switch fluorescence ratio: 0.991 ± 0.025

TGTTTTGTGG
switch fluorescence ratio: 1.02 ± 0.018

TGTTTTTAGA
switch fluorescence ratio: 1.01 ± 0.019

TGTTTTTGGG
switch fluorescence ratio: 0.989 ± 0.029

TGTTTTTGGT
switch fluorescence ratio: 0.978 ± 0.016

TGTTTTTTAA
switch fluorescence ratio: 0.99 ± 0.044

TGTTTTTTGC
switch fluorescence ratio: 0.995 ± 0.056

TTAAAAAATT
switch fluorescence ratio: 1.02 ± 0.039

TTAAAAACCT
switch fluorescence ratio: 1.65 ± 0.62

TTAAAAAGTG
switch fluorescence ratio: 1.02 ± 0.068

TTAAAAATCG
switch fluorescence ratio: 1.02 ± 0.037

TTAAAAATGT
switch fluorescence ratio: 0.958 ± 0.069

TTAAAACTAT
switch fluorescence ratio: 1.015 ± 0.0089

TTAAAAGAGG
switch fluorescence ratio: 1.01 ± 0.014

TTAAAAGGTC
switch fluorescence ratio: 1.027 ± 0.0083

TTAAAATCAC
switch fluorescence ratio: 1.09 ± 0.077

TTAAAATCAG
switch fluorescence ratio: 1.01 ± 0.027

TTAAAATCGC
switch fluorescence ratio: 0.957 ± 0.022

TTAAAATTCT
switch fluorescence ratio: 1.04 ± 0.06

TTAAACCGCT
switch fluorescence ratio: 1.08 ± 0.053

TTAAACGGAC
switch fluorescence ratio: 1.36 ± 0.021

TTAAACGGTA
switch fluorescence ratio: 1.03 ± 0.029

TTAAACTTAT
switch fluorescence ratio: 1.047 ± 0.0024

TTAAAGATTG
switch fluorescence ratio: 0.987 ± 0.014

TTAAAGATTT
switch fluorescence ratio: 1.07 ± 0.098

TTAAAGCACG
switch fluorescence ratio: 1.07 ± 0.023

TTAAAGGCGT
switch fluorescence ratio: 0.982 ± 0.021

TTAAAGGGTA
switch fluorescence ratio: 0.992 ± 0.054

TTAAAGGTGG
switch fluorescence ratio: 0.984 ± 0.042

TTAAATATGG
switch fluorescence ratio: 1.02 ± 0.033

TTAAATGAAT
switch fluorescence ratio: 0.991 ± 0.022

TTAAATGTGT
switch fluorescence ratio: 1.02 ± 0.018

TTAAATGTTT
switch fluorescence ratio: 0.994 ± 0.015

TTAAATTGGT
switch fluorescence ratio: 0.99 ± 0.025

TTAAATTTGG
switch fluorescence ratio: 1.01 ± 0.027

TTAACAAGGA
switch fluorescence ratio: 1.018 ± 0.0085

TTAACCAGCA
switch fluorescence ratio: 1.05 ± 0.032

TTAACCCGCC
switch fluorescence ratio: 1.16 ± 0.14

TTAACGGTCG
switch fluorescence ratio: 1.02 ± 0.072

TTAACGTGTG
switch fluorescence ratio: 0.975 ± 0.029

TTAACTTGAG
switch fluorescence ratio: 0.9831 ± 0.0047

TTAAGAAGCC
switch fluorescence ratio: 0.987 ± 0.049

TTAAGACTTT
switch fluorescence ratio: 1.02 ± 0.032

TTAAGATATT
switch fluorescence ratio: 0.9797 ± 0.0066

TTAAGATGAG
switch fluorescence ratio: 0.961 ± 0.035

TTAAGATTCC
switch fluorescence ratio: 1.1 ± 0.028

TTAAGATTTA
switch fluorescence ratio: 0.9933 ± 0.0077

TTAAGCACCT
switch fluorescence ratio: 1.304 ± 0.013

TTAAGCCCAT
switch fluorescence ratio: 1 ± 0.011

TTAAGCCGGT
switch fluorescence ratio: 1.04 ± 0.036

TTAAGCGGCG
switch fluorescence ratio: 0.992 ± 0.016

TTAAGGCCAC
switch fluorescence ratio: 1.034 ± 0.0055

TTAAGGCCGG
switch fluorescence ratio: 1.03 ± 0.025

TTAAGGCGCT
switch fluorescence ratio: 0.976 ± 0.019

TTAAGGCGGA
switch fluorescence ratio: 1.04 ± 0.023

TTAAGGCTTT
switch fluorescence ratio: 0.984 ± 0.025

TTAAGGGAAA
switch fluorescence ratio: 1.02 ± 0.02

TTAAGGGGAA
switch fluorescence ratio: 1.06 ± 0.063

TTAAGGGTAA
switch fluorescence ratio: 0.967 ± 0.047

TTAAGGGTAT
switch fluorescence ratio: 1 ± 0.011

TTAAGGGTGT
switch fluorescence ratio: 1.02 ± 0.04

TTAAGGTCCG
switch fluorescence ratio: 0.987 ± 0.047

TTAAGGTGTG
switch fluorescence ratio: 1.02 ± 0.041

TTAAGGTTAG
switch fluorescence ratio: 0.976 ± 0.024

TTAAGTCAAG
switch fluorescence ratio: 0.98687 ± 0.00044

TTAAGTCCGC
switch fluorescence ratio: 1.17 ± 0.034

TTAAGTGGAA
switch fluorescence ratio: 0.997 ± 0.049

TTAAGTGTAC
switch fluorescence ratio: 1.03 ± 0.026

TTAAGTGTGG
switch fluorescence ratio: 0.973 ± 0.031

TTAAGTGTTT
switch fluorescence ratio: 1 ± 0.022

TTAAGTTAGC
switch fluorescence ratio: 1.06 ± 0.045

TTAAGTTGAG
switch fluorescence ratio: 0.983 ± 0.021

TTAAGTTTGT
switch fluorescence ratio: 0.994 ± 0.022

TTAAGTTTTG
switch fluorescence ratio: 1.016 ± 0.0078

TTAATAAAC
switch fluorescence ratio: 1.01 ± 0.017

TTAATAAAGG
switch fluorescence ratio: 1.02 ± 0.018

TTAATAACGG
switch fluorescence ratio: 1.04 ± 0.06

TTAATAAGCT
switch fluorescence ratio: 0.978 ± 0.022

TTAATAAGTG
switch fluorescence ratio: 0.964 ± 0.028

TTAATAATTC
switch fluorescence ratio: 0.996 ± 0.032

TTAATACCGC
switch fluorescence ratio: 1.12 ± 0.022

TTAATATGCT
switch fluorescence ratio: 0.997 ± 0.049

TTAATATGGT
switch fluorescence ratio: 0.99 ± 0.04

TTAATATTTT
switch fluorescence ratio: 0.985 ± 0.026

TTAATCTAGC
switch fluorescence ratio: 0.991 ± 0.021

TTAATCTGGG
switch fluorescence ratio: 0.992 ± 0.016

TTAATCTTTC
switch fluorescence ratio: 1.09 ± 0.05

TTAATGAGTG
switch fluorescence ratio: 0.99 ± 0.015

TTAATGGTTG
switch fluorescence ratio: 0.975 ± 0.032

TTAATGGTTT
switch fluorescence ratio: 1.11 ± 0.17

TTAATGTGGC
switch fluorescence ratio: 0.986 ± 0.015

TTAATTAAGT
switch fluorescence ratio: 0.987 ± 0.04

TTAATTACCA
switch fluorescence ratio: 0.984 ± 0.029

TTAATTATCT
switch fluorescence ratio: 1.01 ± 0.051

TTAATTCGCT
switch fluorescence ratio: 1.04 ± 0.098

TTAATTGTTC
switch fluorescence ratio: 1.06 ± 0.068

TTAATTTAAA
switch fluorescence ratio: 0.9752 ± 0.0031

TTAATTTGTC
switch fluorescence ratio: 1.03 ± 0.061

TTAATTTTTT
switch fluorescence ratio: 0.995 ± 0.037

TTACAAAATA
switch fluorescence ratio: 1.03 ± 0.048

TTACAAATTT
switch fluorescence ratio: 0.9647 ± 0.0066

TTACAAGATT
switch fluorescence ratio: 1.03 ± 0.0047

TTACACGAGA
switch fluorescence ratio: 1.054 ± 0.0057

TTACACGTTC
switch fluorescence ratio: 1.03 ± 0.018

TTACATATGA
switch fluorescence ratio: 1.04 ± 0.016

TTACATTTTT
switch fluorescence ratio: 1.05 ± 0.06

TTACCCCCGT
switch fluorescence ratio: 1.56 ± 0.079

TTACCCGTCA
switch fluorescence ratio: 1.06 ± 0.044

TTACCCTATA
switch fluorescence ratio: 1.07 ± 0.029

TTACCGAGGT
switch fluorescence ratio: 1.03 ± 0.031

TTACCTGGCT
switch fluorescence ratio: 1.1 ± 0.059

TTACGAACCG
switch fluorescence ratio: 1.23 ± 0.026

TTACGACGAC
switch fluorescence ratio: 2.21 ± 0.096

TTACGATGGT
switch fluorescence ratio: 1.003 ± 0.0032

TTACGGCCCG
switch fluorescence ratio: 1.05 ± 0.051

TTACGGGTAA
switch fluorescence ratio: 0.99 ± 0.01

TTACGGTAAC
switch fluorescence ratio: 2.05 ± 1.1

TTACGGTATG
switch fluorescence ratio: 1.09 ± 0.035

TTACGGTGGA
switch fluorescence ratio: 0.9963 ± 0.0033

TTACGTCATA
switch fluorescence ratio: 1.67 ± 0.95

TTACGTGCAT
switch fluorescence ratio: 1.01 ± 0.011

TTACGTTCCT
switch fluorescence ratio: 1.5 ± 0.13

TTACGTTTGT
switch fluorescence ratio: 1.02 ± 0.07

TTACGTTTTT
switch fluorescence ratio: 0.999 ± 0.011

TTACTAAGCT
switch fluorescence ratio: 1.03 ± 0.069

TTACTAGGCC
switch fluorescence ratio: 1.01 ± 0.034

TTACTAGTTT
switch fluorescence ratio: 0.981 ± 0.02

TTACTATGGC
switch fluorescence ratio: 0.966 ± 0.032

TTACTATGTT
switch fluorescence ratio: 0.999 ± 0.018

TTACTGATCC
switch fluorescence ratio: 1.04 ± 0.019

TTACTGCATT
switch fluorescence ratio: 1.11 ± 0.014

TTACTGCTTT
switch fluorescence ratio: 1.02 ± 0.025

TTACTGGTTA
switch fluorescence ratio: 1.01 ± 0.029

TTACTTACGA
switch fluorescence ratio: 1.4167 ± 0.00061

TTACTTATAA
switch fluorescence ratio: 1.04 ± 0.018

TTACTTCAGG
switch fluorescence ratio: 1.032 ± 0.0026

TTACTTGCAT
switch fluorescence ratio: 1.065 ± 0.0059

TTACTTGTGG
switch fluorescence ratio: 0.988 ± 0.024

TTACTTGTTT
switch fluorescence ratio: 1 ± 0.023

TTACTTTCCT
switch fluorescence ratio: 1.12 ± 0.086

TTACTTTGGC
switch fluorescence ratio: 1 ± 0.022

TTACTTTGTT
switch fluorescence ratio: 1.02 ± 0.023

TTAGAACATC
switch fluorescence ratio: 1.009 ± 0.0053

TTAGAAGGCA
switch fluorescence ratio: 1.03 ± 0.036

TTAGAAGGG
switch fluorescence ratio: 0.965 ± 0.012

TTAGAAGGGG
switch fluorescence ratio: 0.993 ± 0.015

TTAGAAGTCA
switch fluorescence ratio: 1.0063 ± 0.00067

TTAGAATTAA
switch fluorescence ratio: 0.9724 ± 0.0063

TTAGACATAT
switch fluorescence ratio: 1.02 ± 0.021

TTAGACGAGC
switch fluorescence ratio: 0.986 ± 0.031

TTAGAGAACC
switch fluorescence ratio: 1.01 ± 0.016

TTAGAGAGTG
switch fluorescence ratio: 0.984 ± 0.044

TTAGAGCGTT
switch fluorescence ratio: 1.72 ± 1

TTAGAGGACG
switch fluorescence ratio: 1.02 ± 0.025

TTAGAGGGTG
switch fluorescence ratio: 1.12 ± 0.018

TTAGAGTTGT
switch fluorescence ratio: 0.999 ± 0.034

TTAGAGTTTA
switch fluorescence ratio: 0.975 ± 0.014
